Here are results for two molecules from patent US7176178 (HANSA MEDICAL, dated 2007).

Assay [1] deals with nucleophosmin/B23 (NPM), papain-released material from Jurkat membrane preparations (Mono-Q pool 85-87) (human) (UniProt P06748). The experiment in a line: competitive inhibition of the binding of 125I-labelled NPM to protein H-Sepharose by unlabeled fragment AB.
The target in assay [2] is T1, protein H (COOH-terminally truncated fragment expressed by and purified from E. coli) (Streptococcus pyogenes, UniProt P50470 42-346).
T1 construct: also called recombinant protein H; soluble protein H
T1 sequence: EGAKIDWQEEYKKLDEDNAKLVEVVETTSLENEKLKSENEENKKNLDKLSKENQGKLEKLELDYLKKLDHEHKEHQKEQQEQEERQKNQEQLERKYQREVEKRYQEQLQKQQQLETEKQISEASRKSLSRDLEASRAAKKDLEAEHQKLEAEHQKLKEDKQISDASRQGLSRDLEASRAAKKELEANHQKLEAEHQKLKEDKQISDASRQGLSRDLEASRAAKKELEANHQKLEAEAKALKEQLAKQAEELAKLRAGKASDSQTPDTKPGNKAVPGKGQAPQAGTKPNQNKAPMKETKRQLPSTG
In words: 35S-labelled in vitro translated peptide applied to protein H-Sepharose, KSCN eluate on SDS-PAGE, autoradiography.

Chain of nucleophosmin/B23 (NPM), papain-released material from Jurkat membrane preparations (Mono-Q pool 85-87) (human) (P06748 1-149 limits assumed): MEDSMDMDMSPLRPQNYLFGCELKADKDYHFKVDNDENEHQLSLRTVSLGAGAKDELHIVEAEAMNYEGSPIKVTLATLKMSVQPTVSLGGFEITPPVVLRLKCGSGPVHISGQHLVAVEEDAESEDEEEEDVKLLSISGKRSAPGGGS

Regarding fragment AB of protein H (peptide), the IC50 (read off the curve) in assay [1] turned out to be 100 pmol.

B1: COOH-terminal fragment of NPM, in vitro translated (peptide)
chain: KVPQKKVKLAADEDDDDDDEEDDDEDDDDDDFDDEEAEEKAPVKKSIRDTPAKNAQKSNQNGKDSKPSSTPRSKGQESFKKQEKTPKTPKGPSSVEDIKAKMQASIEKGGSLPKVEAKFINYVKNCFRMTDQEAIQDLWQWRKSL
notes: domain: COOH-terminal half; also called COOH-terminal peptide; COOH-terminal half of NPM
Take B1: the binding result in assay [2] is “no binding”.
